This note sets out measurements from PMC8810855.

This experiment deals with Arp2/3 complex (bovine brain) (bovine) (UniProt P61157). The experiment can be described thus: ITC; full-length Arpin in the syringe, ATP-bound Arp2/3 complex in the cell; 25 °C; Arp buffer (20 mM HEPES pH 7.5, 100 mM KCl, 1 mM MgCl2, 1 mM EGTA, 1 mM DTT) with 0.2 mM ATP; one-site isotherm. A general note: In ITC the heat of successive injections is recorded.

pKd: −log10 of the molar value.

“full-length human Arpin (from UniProt Q7Z6K5 1-226) (natural protein)” gave a pKd of 5.91 and a stoichiometry N of 1.06.

By pKd is commonly meant −log10 of the Kd, conventionally taken in molar units. Lower therefore signals a large Kd. The stoichiometry N is a count of units in the complex or per binding partner.
